Laboratory results taken from publication PMC6916501 (The Journal of Biological Chemistry, 2019).

Assays:
[1] = biological target: T1, WT β-catenin_(41–49) peptide on HLA-A3 of T2A3 cells (Homo sapiens, HLA-A*03:01, UniProt P04439;P61769); test: flow cytometry on cells; T2A3 cells pulsed with peptide and β2-microglobulin, stained with ~1 × 10^10 phage for 1 h on ice; anti-M13 and PE anti-rabbit; details: partners not purified
T1 construct: HLA-A3 stably transfected in T2A3 cells; human β2-microglobulin (ProSpec) added at pulsing; β-catenin amino acids 41-49; also called WT peptide-pulsed T2A3 cells; copies: + +

[2] = biological target: T1, WT β-catenin_(41–49) peptide on HLA-A3 …; test: flow cytometry on cells; T2A3 cells pulsed with peptide and β2-microglobulin, stained with 1 μg scFv in 100 μl for 1 h on ice; PE anti-DYKDDDDK; details: one partner purified

B1: clone 7 phage clone (scFv displayed on M13 phage) (scFv, V domains shown)
VH: EVQLVESGGGLVQPGGSLRLSCAASGFNVWSYGIHWVRQAPGKGLEWVAGVTPDGSYTYYADSVKGRFTISADTSKNTAYLQMNSLRAEDTAVYYCSRSYGWAMDYWGQGTLVTVSS
VL: DIQMTQSPSSLSASVGDRVTITCRASQDVNTAVAWYQQKPGKAPKLLIYSASFLYSGVPSRFSGSRSGTDFTLTISSLQPEDFATYYCQQQYAYTPITFGQGTKVEIK
notes: scFv from the second library on the humanized 4D5 framework (CDRs L2, L3, H1, H2, H3 varied); also called cl; source: phage display, amplified in SS320 E. coli with M13K07 helper phage
B1: no binding [1].

B2: clone 7 scFv with C-terminal FLAG tag (scFv, V domains shown)
VH: EVQLVESGGGLVQPGGSLRLSCAASGFNVWSYGIHWVRQAPGKGLEWVAGVTPDGSYTYYADSVKGRFTISADTSKNTAYLQMNSLRAEDTAVYYCSRSYGWAMDYWGQGTLVTVSS
VL: DIQMTQSPSSLSASVGDRVTITCRASQDVNTAVAWYQQKPGKAPKLLIYSASFLYSGVPSRFSGSRSGTDFTLTISSLQPEDFATYYCQQQYAYTPITFGQGTKVEIK
notes: as the scFv of m22; also called cl; source: E. coli, produced by AxioMx
B2: no binding [2].

B3: E10 phage clone (scFv displayed on M13 phage) (scFv, V domains shown)
VH: EVQLVESGGGLVQPGGSLRLSCAASGFNINNTYIHWVRQAPGKGLEWVASIYPTDGYTRYADSVKGRFTISADTSKNTAYLQMNSLRAEDTAVYYCSRTYYSYYSAMDVWGQGTLVTVSS
VL: DIQMTQSPSSLSASVGDRVTITCRASQDVNTAVAWYQQKPGKAPKLLIYSASFLYSGVPSRFSGSRSGTDFTLTISSLQPEDFATYYCQQSYYSPPTFGQGTKVEIK
notes: scFv from the first library on the humanized 4D5 framework (CDRs L3, H1, H2, H3 varied); source: phage display, amplified in SS320 E. coli with M13K07 helper phage
B3: no binding [1].

B4: E10 scFv with C-terminal FLAG tag (scFv, V domains shown)
VH: EVQLVESGGGLVQPGGSLRLSCAASGFNINNTYIHWVRQAPGKGLEWVASIYPTDGYTRYADSVKGRFTISADTSKNTAYLQMNSLRAEDTAVYYCSRTYYSYYSAMDVWGQGTLVTVSS
VL: DIQMTQSPSSLSASVGDRVTITCRASQDVNTAVAWYQQKPGKAPKLLIYSASFLYSGVPSRFSGSRSGTDFTLTISSLQPEDFATYYCQQSYYSPPTFGQGTKVEIK
notes: as the scFv of m19; source: E. coli, produced by AxioMx
B4: no binding [2].
